{"source": "paper PMC10140031", "key": {"[1]": {"target": "His-ISG65_(18-363)-Avi, C-terminally biotinylated (T. b. gambiense)", "assay": "SPR; biotinylated His-ISG65_(18-363)-Avi immobilised on Series S sensor chip CAP, BIAcore T200, 25 °C; 20 mM HEPES pH 7.5, 150 mM NaCl, 3 mM EDTA, 0.005% TWEEN-20; analytes C3d and C3d mutants (0.78-50 nM), native C3, C3b, C3MA, C3c"}, "[2]": {"target": "His-C3d-Avi, biotinylated (human)", "assay": "SPR; biotinylated His-C3d-Avi immobilised on Series S sensor chip CAP, BIAcore T200, 25 °C; 20 mM HEPES pH 7.5, 150 mM NaCl, 3 mM EDTA, 0.005% TWEEN-20; analytes ISG65 and ISG65 mutants 1.5-100 nM"}, "[3]": {"target": "native human complement C3 (human) (UniProt P01024)", "sequence (P01024 23-667, chain 1 of 2)": "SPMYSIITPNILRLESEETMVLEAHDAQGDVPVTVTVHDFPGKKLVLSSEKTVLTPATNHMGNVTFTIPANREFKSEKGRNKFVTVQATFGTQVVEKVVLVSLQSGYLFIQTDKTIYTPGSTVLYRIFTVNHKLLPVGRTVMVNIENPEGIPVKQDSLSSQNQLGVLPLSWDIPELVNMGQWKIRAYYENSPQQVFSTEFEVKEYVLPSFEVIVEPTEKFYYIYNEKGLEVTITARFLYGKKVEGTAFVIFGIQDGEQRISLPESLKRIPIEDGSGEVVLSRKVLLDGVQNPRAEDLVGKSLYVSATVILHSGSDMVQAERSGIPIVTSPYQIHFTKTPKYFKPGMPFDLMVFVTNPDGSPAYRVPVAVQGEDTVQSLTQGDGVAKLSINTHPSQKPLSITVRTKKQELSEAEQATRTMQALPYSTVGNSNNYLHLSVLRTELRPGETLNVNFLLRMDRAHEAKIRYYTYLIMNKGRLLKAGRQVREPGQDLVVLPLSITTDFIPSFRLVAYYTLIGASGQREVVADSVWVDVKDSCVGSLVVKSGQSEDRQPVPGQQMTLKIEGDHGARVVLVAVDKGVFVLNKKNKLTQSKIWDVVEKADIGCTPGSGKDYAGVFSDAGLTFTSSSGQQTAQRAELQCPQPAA", "sequence (P01024 672-1663, chain 2 of 2)": "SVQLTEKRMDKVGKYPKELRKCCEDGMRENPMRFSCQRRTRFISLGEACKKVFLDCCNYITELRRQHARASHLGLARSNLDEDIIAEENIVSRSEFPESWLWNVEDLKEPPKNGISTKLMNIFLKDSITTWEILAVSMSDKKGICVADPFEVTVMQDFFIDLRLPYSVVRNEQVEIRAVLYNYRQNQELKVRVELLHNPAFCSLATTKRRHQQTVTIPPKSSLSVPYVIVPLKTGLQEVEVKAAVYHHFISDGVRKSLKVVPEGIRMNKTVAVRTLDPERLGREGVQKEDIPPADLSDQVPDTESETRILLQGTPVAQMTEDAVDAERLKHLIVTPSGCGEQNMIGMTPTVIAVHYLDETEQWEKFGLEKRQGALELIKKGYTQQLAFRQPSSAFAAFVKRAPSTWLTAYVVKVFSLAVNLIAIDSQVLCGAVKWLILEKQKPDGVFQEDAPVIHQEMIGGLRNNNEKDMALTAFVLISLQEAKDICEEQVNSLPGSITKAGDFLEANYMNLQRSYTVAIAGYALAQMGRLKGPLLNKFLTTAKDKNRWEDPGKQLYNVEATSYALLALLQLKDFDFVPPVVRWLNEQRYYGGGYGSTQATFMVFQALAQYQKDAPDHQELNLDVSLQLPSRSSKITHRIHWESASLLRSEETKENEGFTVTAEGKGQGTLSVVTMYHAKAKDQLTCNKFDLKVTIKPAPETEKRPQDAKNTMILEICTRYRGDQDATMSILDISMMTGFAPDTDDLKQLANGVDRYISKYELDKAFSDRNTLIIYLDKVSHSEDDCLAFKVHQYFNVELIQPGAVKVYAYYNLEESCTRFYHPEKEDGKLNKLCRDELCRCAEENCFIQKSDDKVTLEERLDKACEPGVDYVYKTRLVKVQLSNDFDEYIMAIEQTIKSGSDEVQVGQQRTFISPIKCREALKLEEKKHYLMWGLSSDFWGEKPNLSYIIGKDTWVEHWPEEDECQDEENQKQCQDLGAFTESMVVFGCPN"}, "[4]": {"target": "Alexa Fluor 594 labelled human C3b (human) (UniProt P01024)", "sequence (P01024 23-667, chain 1 of 2)": "as the sequence (P01024 23-667, chain 1 of 2) above", "sequence (P01024 749-1663, chain 2 of 2)": "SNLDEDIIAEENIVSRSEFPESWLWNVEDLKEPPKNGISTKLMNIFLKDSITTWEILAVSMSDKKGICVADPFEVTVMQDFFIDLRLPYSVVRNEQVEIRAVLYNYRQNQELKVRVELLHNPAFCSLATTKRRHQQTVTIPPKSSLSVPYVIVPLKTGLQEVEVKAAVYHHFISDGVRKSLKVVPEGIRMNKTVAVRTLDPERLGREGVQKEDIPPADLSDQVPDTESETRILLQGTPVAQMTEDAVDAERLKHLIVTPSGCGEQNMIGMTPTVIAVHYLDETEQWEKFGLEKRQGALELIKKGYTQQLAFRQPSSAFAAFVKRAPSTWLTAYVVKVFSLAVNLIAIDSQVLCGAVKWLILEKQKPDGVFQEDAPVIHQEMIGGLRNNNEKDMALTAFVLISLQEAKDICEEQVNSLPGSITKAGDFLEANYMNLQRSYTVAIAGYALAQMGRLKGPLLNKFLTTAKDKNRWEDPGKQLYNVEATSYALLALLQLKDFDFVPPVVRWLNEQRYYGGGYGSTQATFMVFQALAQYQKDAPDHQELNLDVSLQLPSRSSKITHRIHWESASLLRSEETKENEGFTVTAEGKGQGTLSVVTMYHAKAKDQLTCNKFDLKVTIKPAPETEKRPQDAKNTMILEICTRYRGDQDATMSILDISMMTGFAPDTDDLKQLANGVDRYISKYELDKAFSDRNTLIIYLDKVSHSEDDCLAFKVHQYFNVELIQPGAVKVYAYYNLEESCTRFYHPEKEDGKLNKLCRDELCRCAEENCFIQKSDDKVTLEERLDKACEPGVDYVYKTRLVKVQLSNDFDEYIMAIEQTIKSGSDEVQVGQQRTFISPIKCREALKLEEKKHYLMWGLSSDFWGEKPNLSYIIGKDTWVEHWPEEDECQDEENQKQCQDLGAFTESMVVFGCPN", "assay": "flow cytometry on cells; competition: recombinant ISG65 at 1.5-fold molar excess preincubated with AF594 labelled C3b for 10 min before addition to T. b. gambiense cells on ice"}, "[5]": {"target": "His-C3d-Avi, biotinylated", "assay": "SPR"}, "[6]": {"target": "His-ISG65_(18-363) Lys97Ala (T. b. gambiense)", "assay": "SPR; His-ISG65_(18-363) covalently immobilised via amine coupling; C3a (8-0.25 µM) flown over at 30 µl/min, 100 s association, 300 s dissociation; regeneration 1 M NaCl"}, "[7]": {"target": "His-ISG65_(18-363), extracellular domain of invariant surface glycoprotein 65 of T. b. gambiense (T. b. gambiense)", "assay": "SPR; His-ISG65_(18-363) covalently immobilised via amine coupling; C3a (8-0.25 µM) flown over at 30 µl/min, 100 s association, 300 s dissociation; regeneration 1 M NaCl"}, "[8]": {"target": "His-ISG65_(18-363) Glu302Ala (T. b. gambiense)", "assay": "SPR; His-ISG65_(18-363) covalently immobilised via amine coupling; C3a (8-0.25 µM) flown over at 30 µl/min, 100 s association, 300 s dissociation; regeneration 1 M NaCl"}, "[9]": {"target": "His-ISG65_(18-363), extracellular domain of invariant surface glycoprotein 65 of T. b. gambiense (T. b. gambiense)", "assay": "cross-linking; ISG65 and C3b mixed 2:1, 100x molar excess of DSA, 20 mM HEPES pH 7.5, 150 mM NaCl, room temperature 30 min; SDS-PAGE"}}}
{"substance": "C3MA, methylamine-treated human C3 (from UniProt P01024 23-667; P01024 672-1663) (natural protein)", "values": [{"measurement": "Kd", "setting": "[1]", "value": 18, "unit": "nM"}]}
{"substance": "His-C3d Arg1134Ala (domain or fragment)", "values": [{"measurement": "KD relative to wild type (so in the source)", "setting": "[1]", "value": 30, "unit": "%"}]}
{"substance": "His-C3d, recombinant human C3d (domain or fragment)", "values": [{"measurement": "Kd", "setting": "[1]", "value": 7, "unit": "nM"}]}
{"substance": "His-ISG65_(18-363) Trp211Ala (domain or fragment)", "values": [{"measurement": "KD relative to wild type (so in the source)", "setting": "[2]", "value": 42, "unit": "%"}]}
{"substance": "His-ISG65_(18-363), extracellular domain of invariant surface glycoprotein 65 of T. b. gambiense (domain or fragment)", "values": [{"measurement": "AP50 haemolysis assay: lysis of rabbit erythrocytes in human serum after activation of the alternative pathway, soluble ISG65 7.5-0 µM", "setting": "[3]", "value": "< 90", "unit": "%"}, {"measurement": "percent reduction of C3b surface binding to T. b. gambiense cells", "setting": "[4]", "value": 60, "unit": "%"}]}
{"substance": "His-ISG65_(18-363), extracellular domain of invariant surface glycoprotein 65 of T. b. gambiense T297A", "values": [{"measurement": "percent of parent", "setting": "[5]", "value": 15, "unit": "%"}]}
{"substance": "His-ISG65_(18-363), extracellular domain of invariant surface glycoprotein 65 of T. b. gambiense Y70A", "values": [{"measurement": "percent of parent", "setting": "[5]", "value": 36, "unit": "%"}]}
{"substance": "human complement C3a (from UniProt P01024 672-748) (domain or fragment)", "values": [{"measurement": "Kd", "setting": "[6]", "value": 80000, "unit": "nM"}, {"measurement": "Kd", "setting": "[7]", "value": 18000, "unit": "nM"}, {"measurement": "Kd", "setting": "[8]", "value": 78000, "unit": "nM"}]}
{"substance": "human complement C3b (from UniProt P01024 23-667; P01024 749-1663) (domain or fragment)", "values": [{"measurement": "Kd", "setting": "[1]", "value": 81, "unit": "nM"}, {"measurement": "stoichiometry N", "setting": "[9]", "value": 1}]}
{"substance": "native human complement C3 (from UniProt P01024 23-667; P01024 672-1663) (natural protein)", "values": [{"measurement": "Kd", "setting": "[1]", "value": 130, "unit": "nM"}]}
